Laboratory results from patent US7288251 (ABGENIX, dated 2007).

T1: dog CD40 on blood cells (dog, UniProt Q7YRL5 21-274)
T1 construct: whole, on cells; also called dog blood
T1 sequence (looked up): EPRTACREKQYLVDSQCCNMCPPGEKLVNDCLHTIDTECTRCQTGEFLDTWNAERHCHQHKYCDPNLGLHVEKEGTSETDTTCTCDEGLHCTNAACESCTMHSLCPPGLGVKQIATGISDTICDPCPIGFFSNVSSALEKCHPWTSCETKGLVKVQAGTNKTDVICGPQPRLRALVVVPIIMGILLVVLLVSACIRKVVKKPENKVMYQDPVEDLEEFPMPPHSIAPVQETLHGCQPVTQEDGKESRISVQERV

T2: rat CD40 on blood cells (rat, UniProt A6JXD6 20-289)
T2 construct: also called rat blood
T2 sequence: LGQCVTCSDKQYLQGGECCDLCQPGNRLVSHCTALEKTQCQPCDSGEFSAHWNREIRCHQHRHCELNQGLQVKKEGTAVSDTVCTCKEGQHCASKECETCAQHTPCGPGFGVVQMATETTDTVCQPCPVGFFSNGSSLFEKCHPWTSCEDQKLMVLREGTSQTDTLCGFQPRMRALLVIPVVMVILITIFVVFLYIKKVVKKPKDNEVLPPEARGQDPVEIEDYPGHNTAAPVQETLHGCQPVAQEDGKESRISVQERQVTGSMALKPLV


Columns and labels:
[1] = biological target: T3, TNFR-2/Ig; experiment: ELISA, TNFR-2/Ig coated, antibody 1 µg/ml
T3 construct: also called Tumor Necrosis Factor Receptor-2
Description: (§1) We then washed the plate with PBST (PBS+0.1% Tween-20) three times and blocked the plate with PBST+0.5% BSA at 150 µl/well. We incubated the plate at room temperature for 1 hour and then washed with PBST three times. […] We incubated the plate at room temperature for 1 hour then washed with PBST three times. […] We incubated the plate at room temperature for 1 hour and then washed with PBST three times. […] We then read the plate using a SpectraMax™ plate reader.

[2] = biological target: T4, human CD40 on cells (human, UniProt P25942 21-277); experiment: FACS on CD19/CD20+ B cells in whole blood
T4 construct: whole, on cells; also called human B cells; monocyte derived dendritic cells
T4 sequence (P25942 21-277): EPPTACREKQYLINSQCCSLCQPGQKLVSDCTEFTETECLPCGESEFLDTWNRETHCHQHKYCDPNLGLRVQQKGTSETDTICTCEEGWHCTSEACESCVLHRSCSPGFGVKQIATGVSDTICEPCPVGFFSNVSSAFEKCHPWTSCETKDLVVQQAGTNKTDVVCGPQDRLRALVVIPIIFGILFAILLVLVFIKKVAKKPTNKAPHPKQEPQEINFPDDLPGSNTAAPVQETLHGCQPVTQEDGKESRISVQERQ
Description: We incubated aliquots of human and monkey whole blood for 1 hour on ice with increasing concentrations of anti-CD40 antibodies of the invention exemplified herein or with an anti-keyhole limpet hemocyanin (KLH) antibody as a negative control. We then incubated the samples for 30 minutes on ice with anti-human IgG2-conjugated RPE (phycoerythrin). We measured binding by flow cytometry of CD19/CD20 positive B cells and analyzed the histograms of fluorescence intensity (F12-H) versus cell number (Counts) using CellQuest software. We estimated binding (K_D) for each antibody from graphs of mean fluorescence intensity versus antibody concentration. We controlled for depletion of the antibody by measuring binding over a range of cell concentrations.

[3] = biological target: T5, human CD40-IgG1 Fc fusion protein (human, UniProt P25942 21-193); experiment: ELISA, CD40/Ig coated, antibody 1 µg/ml
T5 construct: extracellular domain; also called CD40-Ig fusion protein; CD40-IgG fusion protein; not shown: human IgG1 Fc
T5 sequence (P25942 21-193): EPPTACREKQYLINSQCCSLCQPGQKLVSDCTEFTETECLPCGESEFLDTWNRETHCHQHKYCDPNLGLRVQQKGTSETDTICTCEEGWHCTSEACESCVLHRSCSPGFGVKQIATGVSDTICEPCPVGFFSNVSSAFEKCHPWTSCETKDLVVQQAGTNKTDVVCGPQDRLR

[4] = biological target: T6, 4-1BB/Ig; experiment: ELISA, 4-1BB/Ig coated, antibody 1 µg/ml
T6 construct: also called CD137
Description: as §1

[5] = biological target: T1, dog CD40 on blood cells; experiment: FACS, whole blood
[6] = biological target: T7, mouse CD40 on blood cells (mouse, UniProt P27512 20-289); experiment: FACS, whole blood
T7 construct: whole, on cells; also called mouse blood
T7 sequence (P27512 20-289): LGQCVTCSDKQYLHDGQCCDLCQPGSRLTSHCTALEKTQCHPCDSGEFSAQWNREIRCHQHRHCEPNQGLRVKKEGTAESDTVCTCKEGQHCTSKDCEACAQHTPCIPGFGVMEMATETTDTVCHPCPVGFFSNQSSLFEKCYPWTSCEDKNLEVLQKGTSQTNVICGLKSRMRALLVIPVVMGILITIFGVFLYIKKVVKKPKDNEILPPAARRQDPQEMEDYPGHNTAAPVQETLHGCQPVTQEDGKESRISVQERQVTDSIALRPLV

[7] = biological target: T2, rat CD40 on blood cells; experiment: FACS, whole blood
[8] = biological target: RANK/Ig; experiment: ELISA, RANK/Ig coated, antibody 1 µg/ml
Chain of RANK/Ig (Q9Y6Q6 whole entry): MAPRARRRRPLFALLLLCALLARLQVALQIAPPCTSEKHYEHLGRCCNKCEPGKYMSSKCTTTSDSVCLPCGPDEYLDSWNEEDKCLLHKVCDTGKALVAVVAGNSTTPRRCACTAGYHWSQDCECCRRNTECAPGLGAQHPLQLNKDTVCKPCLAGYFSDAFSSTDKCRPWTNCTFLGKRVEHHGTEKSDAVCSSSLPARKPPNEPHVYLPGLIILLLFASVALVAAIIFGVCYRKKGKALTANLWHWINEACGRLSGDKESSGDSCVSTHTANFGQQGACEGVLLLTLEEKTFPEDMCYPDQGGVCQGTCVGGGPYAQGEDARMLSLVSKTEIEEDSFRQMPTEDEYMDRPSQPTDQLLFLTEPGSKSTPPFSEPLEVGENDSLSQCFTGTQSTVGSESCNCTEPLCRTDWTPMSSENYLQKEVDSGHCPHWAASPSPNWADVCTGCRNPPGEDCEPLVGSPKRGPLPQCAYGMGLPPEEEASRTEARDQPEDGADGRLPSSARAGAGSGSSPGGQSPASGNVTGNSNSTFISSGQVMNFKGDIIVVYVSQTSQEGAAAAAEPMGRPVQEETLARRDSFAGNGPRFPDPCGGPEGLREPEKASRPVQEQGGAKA
Description: as §1

[9] = biological target: T8, TNFR-1/Ig; experiment: ELISA, TNFR-1/Ig coated, antibody 1 µg/ml
T8 construct: also called Tumor Necrosis Factor Receptor-1
T8 sequence (P19438 whole entry): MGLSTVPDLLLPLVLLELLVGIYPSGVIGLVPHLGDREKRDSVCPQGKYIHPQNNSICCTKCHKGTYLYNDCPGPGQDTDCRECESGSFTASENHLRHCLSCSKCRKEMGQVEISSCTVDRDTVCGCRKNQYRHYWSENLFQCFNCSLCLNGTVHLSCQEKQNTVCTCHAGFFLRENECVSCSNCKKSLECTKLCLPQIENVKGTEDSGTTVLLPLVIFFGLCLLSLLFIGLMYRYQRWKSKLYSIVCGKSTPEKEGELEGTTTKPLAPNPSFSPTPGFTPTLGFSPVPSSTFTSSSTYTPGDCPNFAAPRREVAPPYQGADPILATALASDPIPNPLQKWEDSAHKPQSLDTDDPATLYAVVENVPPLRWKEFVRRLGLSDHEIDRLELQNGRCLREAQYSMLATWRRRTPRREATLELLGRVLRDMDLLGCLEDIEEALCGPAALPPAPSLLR
Description: as §1

[10] = biological target: T4, human CD40 on cells; experiment: cell-based or functional assay
[11] = biological target: T5, human CD40-IgG1 Fc fusion protein; experiment: SPR BIAcore 3000, CD40-Ig immobilised, antibody injected
Description: The carboxymethylated dextran surface of a flow cell on a sensor chip was activated by derivatization with 0.05 M N-hydroxysuccinimide mediated by 0.2 M N-ethyl-N'-(dimethylaminopropyl) carbodiimide for 7 min. […] Deactivation of unreacted N-hydroxysuccinimide esters was performed using 1 M ethanolamine hydrochloride, pH 8.5. Following immobilization, the flow cells are cleaned of any unreacted or poorly bound material with 5 regeneration injections of 5 µl of 50 mM NaOH until a stable baseline is achieved. Flow cell 2, a high density surface, measured approximately 300 RU's following surface preparation and flow cell 3, a low density surface, measured approximately 150 RU's. For flow cell 1, the activated blank surface, 35 µl of 10 mM Na acetate buffer was injected during immobilization in place of antigen. Flow cell 4 contained approximately 450 RU's of immobilized CTLA4-Ig, an irrelevant antigen control.
A dilution series of each antibody was prepared in the concentration range of 100 µg/ml to 0.1 µg/ml by half logs. The flow rate was set at 5 µl/min and 25 µl of each concentration point sample was injected over the sensor chip with a regeneration injection of 5 µl of 50 mM NaOH between each concentration of antibody injected. The data was analyzed using BIAevaluation 3.0 software.

[12] = biological target: T4, human CD40 on cells; experiment: cell-based or functional assay; remark: listed apart in the source
[13] = biological target: T4, human CD40 on cells; experiment: cell-based or functional assay; remark: listed apart in the source
[14] = biological target: T4, human CD40 on cells; experiment: cell-based or functional assay; remark: listed apart in the source
[15] = biological target: T4, human CD40 on cells; experiment: cell-based or functional assay; remark: listed apart in the source
[16] = biological target: T9, Mouse CD40(D1-D3)-6Xhis (mouse, UniProt P27512 20-147, limits assumed); experiment: ELISA, 293F supernatant
T9 construct: domain: D1-D3; also called Mouse CD40(D1-D3)-6xHis fusion protein
T9 sequence (P27512 other isoform, or with tags, fused parts or gaps limits assumed): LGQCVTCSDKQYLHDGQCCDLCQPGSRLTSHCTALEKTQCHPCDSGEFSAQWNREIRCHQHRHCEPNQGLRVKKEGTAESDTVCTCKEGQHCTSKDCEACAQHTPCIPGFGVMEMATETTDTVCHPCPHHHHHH
Excerpt: Binding of anti-CD40 human antibodies were detected with HRP conjugated goat anti-human IgG (FC specific Caltag H10507), diluted 1:2,000.

[17] = biological target: T10, human/mouse chimeric CD40 HuD3 (mouse; human, UniProt P27512 20-94; P25942 95-147, limits assumed); experiment: ELISA on chimeric CD40
T10 construct: domain: D1-D2;domain: D3
T10 sequence (P27512 other isoform, or with tags, fused parts or gaps mutant limits assumed): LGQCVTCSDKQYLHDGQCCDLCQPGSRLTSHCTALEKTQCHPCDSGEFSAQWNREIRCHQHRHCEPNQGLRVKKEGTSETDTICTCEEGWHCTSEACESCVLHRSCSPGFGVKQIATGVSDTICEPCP

[18] = biological target: T11, human/mouse chimeric CD40 HuD2, D3 (mouse; human, UniProt P27512 20-64; P25942 65-147, limits assumed); experiment: ELISA on chimeric CD40
T11 construct: domain: D1;domain: D2-D3
T11 sequence (P27512 other isoform, or with tags, fused parts or gaps mutant limits assumed): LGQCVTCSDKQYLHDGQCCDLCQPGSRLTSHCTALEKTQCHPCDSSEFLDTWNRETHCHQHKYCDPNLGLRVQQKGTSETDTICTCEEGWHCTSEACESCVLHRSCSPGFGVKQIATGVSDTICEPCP

[19] = biological target: T12, human/mouse chimeric CD40 HuD1 (human; mouse, UniProt P25942 21-64; P27512 65-147, limits assumed); experiment: ELISA on chimeric CD40
T12 construct: domain: D1;domain: D2-D3
T12 sequence (P25942 other isoform, or with tags, fused parts or gaps mutant limits assumed): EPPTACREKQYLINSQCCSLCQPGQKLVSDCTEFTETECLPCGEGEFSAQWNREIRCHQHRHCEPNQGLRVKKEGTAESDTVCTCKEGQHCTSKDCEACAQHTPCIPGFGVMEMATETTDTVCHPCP

[20] = biological target: T13, human/mouse chimeric CD40 HuD1, D3 (human; mouse, UniProt P25942 21-64; P27512 65-94; P25942 95-147, limits assumed); experiment: ELISA on chimeric CD40
T13 construct: domain: D1;domain: D2;domain: D3
T13 sequence (P25942 other isoform, or with tags, fused parts or gaps mutant limits assumed): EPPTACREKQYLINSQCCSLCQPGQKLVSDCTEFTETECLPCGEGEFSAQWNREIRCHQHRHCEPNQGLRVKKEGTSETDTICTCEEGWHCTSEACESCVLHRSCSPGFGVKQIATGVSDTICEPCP

[21] = biological target: T14, human/mouse chimeric CD40 HuD2 (mouse; human, UniProt P27512 20-64; P25942 65-94; P27512 95-147, limits assumed); experiment: ELISA on chimeric CD40
T14 construct: domain: D1;domain: D2;domain: D3
T14 sequence (P27512 other isoform, or with tags, fused parts or gaps mutant limits assumed): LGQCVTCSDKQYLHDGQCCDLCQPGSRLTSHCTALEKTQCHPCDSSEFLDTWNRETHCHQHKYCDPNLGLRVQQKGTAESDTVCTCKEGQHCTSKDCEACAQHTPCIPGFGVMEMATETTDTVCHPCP

[22] = biological target: T4, human CD40 on cells; experiment: cell-based or functional assay; remark: listed apart in the source

Binder | CD40 specific signal over the signal for this molecule [1] [fold] | CD40 specific signal over the signal for this molecule [4] [fold] | binding result [5] | binding result [6] | binding result [7] | CD40 specific signal over the signal for this molecule [8] [fold] | CD40 specific signal over the signal for this molecule [9] [fold] | DC B7-1 (CD80), fold increase in median intensity at 1 µg/ml, 72 h [10] [fold] | DC B7-2 (CD86), fold increase in median intensity at 1 µg/ml, 72 h [10] [fold] | DC CD83, fold increase in median intensity at 1 µg/ml, 72 h [10] [fold] | DC ICAM (CD54), fold increase in median intensity at 1 µg/ml, 72 h [10] [fold] | DC MHC Class II, fold increase in median intensity at 1 µg/ml, 72 h [10] [fold] | Kd [11] [nM] | koff [11] [s⁻¹] | kon [11] [M⁻¹ s⁻¹] | B cell B7-1 (CD80), fold increase in median intensity at 1 µg/ml [12] [fold] | B cell B7-2 (CD86), fold increase in median intensity at 1 µg/ml [12] [fold] | B cell CD23, fold increase in median intensity at 1 µg/ml [12] [fold] | DC IL-12p70 secretion with LPS, EC50 [13] [µg/mL] | Allo DC/T IFNγ secretion, EC50 [14] [µg/mL] | further results
monoclonal antibody 21.4.1 (antibody, human IgG2, kappa, V domains shown, Human IgG2 kappa from hybridoma; also called mAb 21.4.1; hybridoma 21.4.1 (LN 15853), ATCC PTA-3605) VH: not shown VL: DIQMTQSPSSVSASVGDRVTITCRASQGIYSWLAWYQQKPGKAPNLLIYTASTLQSGVPSRFSGSGSGTDFTLTISSLQPEDFATYYCQQANIFPLTFGGGTKVEIKR | ≥ 100 | ≥ 100 | no binding | no binding | no binding | ≥ 100 | ≥ 100 | – | – | – | – | – | 0.348 | – | – | – | – | – | 0.3 | 0.3 | Dendritic cell B7-2 upregulation, EC50 [15]: 0.0714 µg/mL; Dendritic cell CD83 upregulation, EC50 [15]: 0.233 µg/mL; Dendritic cell ICAM upregulation, EC50 [15]: 0.241 µg/mL; Dendritic cell MHC II upregulation, EC50 [15]: 0.252 µg/mL; binding result [16]: no binding; binding result [17]: no binding; binding result [18]: no binding; binding result [19]: no binding; binding result [20]: no binding; binding result [21]: no binding; B cell B7-2 upregulation, EC50 [22]: 0.016 µg/mL; B cell CD23 upregulation, EC50 [22]: 0.019 µg/mL; B cell CD71 upregulation, EC50 [22]: 0.00073 µg/mL; B cell ICAM upregulation, EC50 [22]: 0.0153 µg/mL; B cell MHC II upregulation, EC50 [22]: 0.00385 µg/mL
monoclonal antibody 23.29.1 (antibody, human IgG2, kappa, V domains shown, Human IgG2 kappa from hybridoma; also called mAb 23.29.1; hybridoma 23.29.1 (LN 15878), ATCC PTA-4553) VH: QVQLVESGGGVVQPGRSLRLSCAASGFTFSSYAMHWVRQAPGKGLEWVAVISYDGSNKYYADSVKGRFTIYRDNSKNTLYLQMNSLRAEDTAVYYCARRGHYGNNYYSYYGLDVWGQGTTVTVSS VL: DIVMTQSPLSLPVTPGEPASISCRSSQSLLPGNGYNYLDWYLQKPGQSPQLLIYLGSNRASGVPDRFSGSGSGTDFTLKISRVEAEDVGIYYCMQALQTPRTFGQGTKVEIKR | ≥ 100 | ≥ 100 | no binding | no binding | no binding | ≥ 100 | ≥ 100 | 0.9 | 8.4 | 10.6 | 1.2 | 2 | 0.0704 | 3.9e-05 | 354000 | 1.3 | 0.9 | 1.1 | 0.1 | 0.3 | binding result [16]: no binding; binding result [17]: no binding; binding result [19]: no binding; binding result [20]: no binding; B cell ICAM (CD54), fold increase in median intensity at 1 µg/ml [12]: 1 fold; B cell MHC Class II, fold increase in median intensity at 1 µg/ml [12]: 1.2 fold
monoclonal antibody 3.1.1 (antibody, human IgG2, kappa, V domains shown, also called mAb 3.1.1; hybridoma 3.1.1 (LN 15848), ATCC PTA-3600) VH: QVQLVESGGGVVQPGRSLRLSCAASGFTFSSYGMHWVRQAPGKGLEWVAVISKDGGNKYHADSVKGRFTISRDNSKNALYLQMNSLRVEDTAVYYCVRRGHQLVLGYYYYNGLDVWGQGTTVTVSS VL: DIVLTQSPLSLPVTPGEPASISCRSSQSLLYSNGYNFLDWYLQKPGQSPQLLIYLGSNRASGVPDRFSGSGSGTDFTLKISRLEAEDVGVYYCMQALQTPRTFGQGTKVEIKR | ≥ 100 | ≥ 100 | no binding | no binding | no binding | ≥ 100 | ≥ 100 | 1.8 | 23.7 | 15.2 | 1.5 | 4.4 | 0.0395 | 3.31e-05 | 1.12e+06 | 1.7 | 1.2 | 5.6 | 0.2 | 0.1 | B cell ICAM (CD54), fold increase in median intensity at 1 µg/ml [12]: 1.3 fold; B cell MHC Class II, fold increase in median intensity at 1 µg/ml [12]: 3.2 fold

Continued, in another order:

CD40 specific signal over the signal for this molecule [1] [fold] | CD40 specific signal over the signal for this molecule [4] [fold] | binding result [5] | binding result [6] | binding result [7] | CD40 specific signal over the signal for this molecule [8] [fold] | CD40 specific signal over the signal for this molecule [9] [fold] | DC B7-1 (CD80), fold increase in median intensity at 1 µg/ml, 72 h [10] [fold] | DC B7-2 (CD86), fold increase in median intensity at 1 µg/ml, 72 h [10] [fold] | DC CD83, fold increase in median intensity at 1 µg/ml, 72 h [10] [fold] | DC ICAM (CD54), fold increase in median intensity at 1 µg/ml, 72 h [10] [fold] | DC MHC Class II, fold increase in median intensity at 1 µg/ml, 72 h [10] [fold] | Kd [11] [nM] | koff [11] [s⁻¹] | kon [11] [M⁻¹ s⁻¹] | B cell B7-1 (CD80), fold increase in median intensity at 1 µg/ml [12] [fold] | B cell B7-2 (CD86), fold increase in median intensity at 1 µg/ml [12] [fold] | B cell CD23, fold increase in median intensity at 1 µg/ml [12] [fold] | DC IL-12p70 secretion with LPS, EC50 [13] [µg/mL] | Allo DC/T IFNγ secretion, EC50 [14] [µg/mL] | Binder | further results
≥ 100 | ≥ 100 | no binding | no binding | no binding | ≥ 100 | ≥ 100 | – | – | – | – | – | – | – | – | – | – | – | – | – | monoclonal antibody 7.1.2 (antibody, human IgG2, kappa, V domains shown, Human IgG2 kappa from hybridoma; also called hybridoma 7.1.2 (LN 15849), ATCC PTA-3601) VH: QVQLVESGGGVVQPGRSLRLSCAASGFTFSSYGMHWVRQAPGKGLEWVAVISNDGDNKYHADSVWGRFTISRDNSRSTLYLQMNSLRAEDTAVYYCARRGMGSSGSRGDYYYYYGLDVWGQGTTVTVSS VL: not shown | binding result [2]: binds; binding result [3]: binds
≥ 100 | ≥ 100 | no binding | no binding | no binding | ≥ 100 | ≥ 100 | 1.4 | 16.3 | 12 | 1.6 | 2.3 | 0.279 | 0.000155 | 955000 | 1.2 | 1 | 1.3 | 0.1 | 0.3 | monoclonal antibody 22.1.1 (antibody, human IgG2, kappa, V domains shown, Human IgG2 kappa from hybridoma; also called hybridoma 22.1.1 (LN 15875), ATCC PTA-4550) VH: QVQLVESGGGVVQPGRSLRLSCAASGFTFSRYGMHWVRQAPGKGLEWVAVISSDGGNKYYADSVKGRFTISRDNSKNTLYLQMNSLRAEDTAVYYCTRRGTGKTYYHYCGMDVWGQGTTVTVSS VL: not shown | B cell ICAM (CD54), fold increase in median intensity at 1 µg/ml [12]: 1.1 fold; B cell MHC Class II, fold increase in median intensity at 1 µg/ml [12]: 1.4 fold
